Measurements published in US20150190466.

Target: T1, N-terminus tagged ILDR2
T1 sequence (Q71H61 whole entry, species assumed, looked up): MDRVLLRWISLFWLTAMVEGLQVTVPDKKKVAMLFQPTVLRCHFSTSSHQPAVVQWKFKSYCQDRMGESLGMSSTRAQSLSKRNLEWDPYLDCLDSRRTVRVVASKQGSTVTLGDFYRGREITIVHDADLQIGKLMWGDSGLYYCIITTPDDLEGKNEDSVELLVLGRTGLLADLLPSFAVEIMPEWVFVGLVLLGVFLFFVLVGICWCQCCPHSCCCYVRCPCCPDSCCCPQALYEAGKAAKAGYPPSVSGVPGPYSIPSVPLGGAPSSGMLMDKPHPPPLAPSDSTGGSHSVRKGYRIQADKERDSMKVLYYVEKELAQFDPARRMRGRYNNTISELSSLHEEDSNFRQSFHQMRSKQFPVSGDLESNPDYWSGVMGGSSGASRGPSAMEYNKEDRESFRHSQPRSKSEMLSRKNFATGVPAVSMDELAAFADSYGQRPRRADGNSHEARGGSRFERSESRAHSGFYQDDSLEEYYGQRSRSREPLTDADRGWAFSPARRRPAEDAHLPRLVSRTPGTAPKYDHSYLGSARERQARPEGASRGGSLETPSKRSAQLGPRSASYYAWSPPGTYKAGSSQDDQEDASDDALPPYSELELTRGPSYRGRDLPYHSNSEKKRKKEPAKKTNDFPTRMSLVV

B1: V5-tagged PERK (protein)
chain: VAPARSLLAPASETVFGLGAAAAPTSAARVPAVATAEVTVEDAEALPAAAGEPESRATEPDDDVELRPRGRSLVIISTLDGRIAALDAENDGKKQWDLDVGSGSLVSSSLSKPEVFGNKMIIPSLDGDLFQWDRDRESMEAVPFTVESLLESSYKFGDDVVLVGGKSLITYGLSAYSGKLRYICSALGCRRWDSDEMEEEEDILLLQRTQKTVRAVGPRSGSEKWNFSVGHFELRYIPDMETRAGFIESTFKPGGNKEDSKIISDVEEQEATMLDTVIKVSVADWKVMAFSRKGGRLEWEYQFCTPIASAWLVRDGKVIPISLFDDTSYTASEEALGDEEDIVEAARGATENSVYLGMYRGQLYLQSSVRVSEKFPTSPKALESVNGENAIIPLPTIKWKPLIHSPSRTPVLVGSDEFDKCLSNDKYSHEEYSNGALSILQYPYDNGYYLPYYKRERNKRSTQITVRFLDSPHYSKNIRKKDPILLLHWWKEIFGTILLCIVATTFIVRRLFHPQPHRQRKESETQCQTESKYDSVSADVSDNSWNDMKYSGYVSRYLTDFEPIQCMGRGGFGVVFEAKNKVDDCNYAIKRIRLPNRELAREKVMREVKALAKLEHPGIVRYFNAWLETPPEKWQEEMDEIWLKDESTDWPLSSPSPMDAPSVKIRRMDPFSTKEQIEVIAPSPERSRSFSVGISCGQTSSSESQFSPLEFSGTDCGDNSDSADAAYNLQDSCLTDCEDVEDGTVDGNDEGHSFELCPSEASPYTRSREGTSSSIVFEDSGCGNASSKEEPRGNRLHDGNHYVNKLTDLKCSSSRSSSEATTLSTSPTRPTTLSLDFTKNTVGQLQPSSPKVYLYIQMQLCRKENLKDWMNRRCSLEDREHGVCLHIFLQIAEAVEFLHSKGLMHRDLKPSNIFFTMDDVVKVGDFGLVTAMDQDEEEQTVLTPMPAYATHTGQVGTKLYMSPEQIHGNNYSHKVDIFSLGLILFELLYPFSTQMERVRILTDVRNLKFPLLFTQKYPQEHMMVQDMLSPSPTERPEATDIIENAIFENLEFPGKTVLRQRSRSMSSSGTKHSRQPSCSYSPLPGN
For B1, the “cleavage of ILDR2 (western blot of ILDR2 fragments after co-transfection)” value was “N-terminus-tagged ILDR2 was also decreased by PERK, but cleaved ILDR2 was not detected”.
